Experimental data from PMC7423246, “A Peptide–Lectin Fusion Strategy for Developing a Glycan Probe for Use in Various Assay Formats” (Chemosensors (Basel, Switzerland), 2019).

Molecular target: HIV coat protein gp120 (oligomannose bearing) (HIV (Human Immunodeficiency Virus), UniProt P04578 33-511, high-mannose-type N-glycans (oligomannose), sites not stated)
Assay: MST; NT-647 labeled PFA held constant, serial dilution of gp120, in 0.1% PBST; 'effective' binding affinity
Conditions: both partners purified

B1: NT-647 labeled PFA (natural protein)
chain: MSKYAVANQWGGSSAPWHPGGTWVLGARDNQNVVAIEIKSGDGGKSFTGTMTYAGEGPIGFKAQRTGQNQYNVENQWGGNDAPWHPGGKWVIGGRDNQNVIALSVTSSDGGKNLSGTNTYANEGPIGFRGQIEVSHPQAPF
modifications: NT-647 fluorophore on amines (amine-reactive NT-647-NHS labelling kit)
Binder B1 has a Kd of 4.1 ± 1.4 nM.
